From publication PMC13635227 (Nature Communications, 2026)
The star is where a group is joined. Biotin = O=C1N[C@H]2[C@H](CS[C@H]2CCCCC(=O)*)N1; AEEA = NCCOCCOCC(=O)O

Experiments:
Test in all cases: BLI
[1] = molecular target: T1, Biotin-PEG-EAEEPSLLKKLLLAPANTQ-NH2 (LXXLL motif peptide, amino acids 135-153 of PPAR coactivator 1α, PGC-1α) (SMILES …)
T1 peptide: {Biotin-AEEA}-EAEEPSLLKKLLLAPANTQ-NH2

[2] = molecular target: T1, Biotin-PEG-EAEEPSLLKKLLLAPANTQ-NH2 …
[3] = molecular target: T1, Biotin-PEG-EAEEPSLLKKLLLAPANTQ-NH2 …

B1: Full-length mouse PPAR-α (peroxisome proliferator-activated receptor α), tag-free (natural protein, UniProt P23204 1-468, looked up)
chain: MVDTESPICPLSPLEADDLESPLSEEFLQEMGNIQEISQSIGEESSGSFGFADYQYLGSCPGSEGSVITDTLSPASSPSSVSCPVIPASTDESPGSALNIECRICGDKASGYHYGVHACEGCKGFFRRTIRLKLVYDKCDRSCKIQKKNRNKCQYCRFHKCLSVGMSHNAIRFGRMPRSEKAKLKAEILTCEHDLKDSETADLKSLGKRIHEAYLKNFNMNKVKARVILAGKTSNNPPFVIHDMETLCMAEKTLVAKMVANGVEDKEAEVRFFHCCQCMSVETVTELTEFAKAIPGFANLDLNDQVTLLKYGVYEAIFTMLSSLMNKDGMLIAYGNGFITREFLKNLRKPFCDIMEPKFDFAMKFNALELDDSDISLFVAAIICCGDRPGLLNIGYIEKLQEGIVHVLKLHLQSNHPDDTFLFPKLLQKMVDLRQLVTEHAQLVQVIKKTESDAALHPLLQEIYRDMY
[1]
  EC50 of palmitic acid (small-molecule ligand of PPAR-α) in promoting the binding: 190 µM
[2]
  EC50 of ciprofibrate (small-molecule ligand of PPAR-α) in promoting the binding: 5.4 µM
[3]
  EC50 of TFA (small-molecule ligand of PPAR-α) in promoting the binding: 4900 µM
